Laboratory results reported in PMC12905498 (2026).

Legend:
[1] = molecular target: T1, Plasmodium falciparum HAP2 domain 3 (PfHAP2 D3 HisAvi), deglycosylated (P. falciparum, deglycosylated with PNGase F); assay: BLI; single experiment
T1 chain: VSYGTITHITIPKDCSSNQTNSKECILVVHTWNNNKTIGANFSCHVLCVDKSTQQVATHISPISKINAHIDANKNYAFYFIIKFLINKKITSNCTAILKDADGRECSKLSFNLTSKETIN

[2] = molecular target: T1, Plasmodium falciparum HAP2 domain 3 …; assay: BLI
[3] = molecular target: T2, Plasmodium vivax HAP2 domain 3 (P. vivax); assay: BLI
T2 chain: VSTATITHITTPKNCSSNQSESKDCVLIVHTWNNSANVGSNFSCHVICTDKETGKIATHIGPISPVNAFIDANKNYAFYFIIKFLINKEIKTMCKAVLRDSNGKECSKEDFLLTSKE

[4] = molecular target: T3, Plasmodium berghei HAP2 domain 3 (P. berghei); assay: BLI
T3 chain: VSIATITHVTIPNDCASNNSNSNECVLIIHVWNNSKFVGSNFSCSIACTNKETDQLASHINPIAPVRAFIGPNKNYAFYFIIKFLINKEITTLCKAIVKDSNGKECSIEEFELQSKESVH

Binder	Kd [1]	Kd [2]	Kd [3]	Kd [4]
WNbFc 333 (nanobody WNb 333 fused to hinge and Fc of human IgG1) (Fc fusion) QVQLQESGGGSVQPGGSLRLSCAASGFTLEDYAIGWFRQAPGKGREGISCISSTDGSTHYADSAKGRFTISRDDAKNTAYLQMNSLKVEDTDVYYCAALSQEHMITVQRMCAVPAAHYWGRGTQVTVSS	9.5 nM	10.5 nM	2250 nM	3650 nM
WNbFc 334 (nanobody WNb 334 fused to hinge and Fc of human IgG1) (Fc fusion) QVQLQESGGGLVQPGGSLRLSCAASGFTLDDYAIGWFRQDPGKGREGVSCISLSDGSTYYADAVTGRFTISRDNAKDTVYLQMNSLKPEDTAVYYCAALSQKQMTTVQAMCAVPIANYWGQGTQVTVSS	19.7 nM	22.2 nM		1440 nM
anti-PbHAP2 D3 mAb 6.14 (variable regions in AbVec-hIgG1 and AbVec-IgKappa) (antibody, V domains shown) VH: EVQLVESGGGLVKPGGSLKLSCAASEFTFSDYGMHWVRQAPEKGLEWVASISSGSNSIYYSDTVKGRFTISRDNAKSILFLQMTSLRSEDTAMYYCSREAYFAMDYWGQGTSVTVSS VL: DIQMTQSPSSLSAILGGKVTITCKASQDIHKYIAWYQHKPGKGPRLLIYYTSTLQPGIPSRFSGSGSGRDYSFSISNLEPEDVATYFCLQYDNLYTFGGGTKVEIE				12.1 nM
anti-PbHAP2 D3 mAb 1.12 (variable regions in AbVec-hIgG1 and AbVec-IgKappa) (antibody, V domains shown) VH: EFQLLQSGPELVKPGASVKISCKASDYSLSDYNMNWVRQRSGKSLEWIGVINPNHGTTHYNQKFKGKATLTVDQSSSTAYMQLTSLTSEDSAVYYCASPIHYGNHVPFDYWGQGTTVTVSS VL: DIQMTQTTSSLSASLGDRVTISCRTGQDISNYLNWYQQKPDGTVKLLIYFTSRLHSGVPSRFSGSGSGTDYSLTISNLEQEDIATYFCQQGITLPWTFGGGTKLEIK				5.1 nM
WNbFc 335 (nanobody WNb 335 fused to hinge and Fc of human IgG1) (Fc fusion) QVQLQESGGGLVQPGGSLRLSCEASASGTIVALGTMAWYRQAPGNQRELVATITEESSTYYADSVKGRCTISRDNARNTMYLRLNSLKPEDTAVYYCNLANFWGQGTQVTVSS	35.2 nM	38.8 nM		
